Substitutions are numbered along the chain they refer to.

B1: Clone 8.46 (VNAR)
VNAR: ARVDQTPQTITKETGESLTINCVLRDSNCALPSTYWYRKKSGSTNEESISKGGRYVETVNSGSKSFSLRINDLTVEDSGTYRCKVIAQLSSYVVGCNYRKHDVYGDGTAVTVNA
notes: VNAR on phage; Clone 8 framework
B2: Clone 8.80 (VNAR)
VNAR: B1 VNAR with S90P, S91H, Y92D, V93L, V94R
notes: as for B1
B3: Clone 8.87 (VNAR)
VNAR: B1 VNAR with L89F, Y92I, V93L, V94C, G95S, N97R
notes: as for B1
B4: Clone 8.70 (VNAR)
VNAR: B1 VNAR with Y92I, V93L, V94R, R99Q, K100T, H101S
notes: as for B1
B5: Clone 8.67 (VNAR)
VNAR: B1 VNAR with Y92I, V93L, V94R, N97V, Y98E, R99P
notes: as for B1
B6: Clone 8.58 (VNAR)
VNAR: B1 VNAR with Y92A, V93G, V94M
notes: as for B1
B7: Clone 8.71 (VNAR)
VNAR: B1 VNAR with Y92I, V93L, V94R, N97T, Y98P, R99H
notes: as for B1
B8: Clone 8.66 (VNAR)
VNAR: B1 VNAR with Y92I, V93L, V94R, R99L, K100A
notes: as for B1
B9: Clone 8.69 (VNAR)
VNAR: B1 VNAR with Y92A, V93P, V94A
notes: as for B1
B10: Clone 8.68 (VNAR)
VNAR: B1 VNAR with Y92I, V93L, V94S, G95S, N97H
notes: as for B1
B11: Clone 8.75 (VNAR)
VNAR: B1 VNAR with S90T, S91E, Y92M, V93L, V94R
notes: as for B1
B12: Clone 8.72 (VNAR)
VNAR: B1 VNAR with Y92I, V93L, V94R, N97S, Y98G, R99V
notes: as for B1
B13: Clone 8.73 (VNAR)
VNAR: B1 VNAR with Y92I, V93L, V94K
notes: as for B1
B14: Clone 8.60 (VNAR)
VNAR: B1 VNAR with Y92I, V93L, V94L, G95T, N97L
notes: as for B1
B15: Clone 8.81 (VNAR)
VNAR: B1 VNAR with Y92A, V93P, V94D
notes: as for B1
B16: Clone 8.48 (VNAR)
VNAR: B1 VNAR with Y92I, V93L, V94R, R99M, K100M, H101Y
notes: as for B1
B17: Clone 8.76 (VNAR)
VNAR: B1 VNAR with I86Q, A87E, Q88E, Y92I, V93L, V94R
notes: as for B1
B18: Clone 8.62 (VNAR)
VNAR: B1 VNAR with Y92I, V93L, V94R, R99A, K100A, H101G
notes: as for B1
B19: Clone 8.49 (VNAR)
VNAR: B1 VNAR with Q88E, L89M, S90G, Y92I, V93L, V94R
notes: as for B1
B20: Clone 8.89 (VNAR)
VNAR: B1 VNAR with Y92I, V93L, V94F, N97D
notes: as for B1
B21: Clone 8.84 (VNAR)
VNAR: B1 VNAR with Q88W, L89Q, Y92I, V93L, V94R
notes: as for B1
B22: Clone 8.52 (VNAR)
VNAR: B1 VNAR with Y92I, V93L, V94R, N97D, Y98R, R99W
notes: as for B1
B23: Clone 8.92 (VNAR)
VNAR: B1 VNAR with S90T, S91Q, Y92W, V93L, V94R
notes: as for B1
B24: Clone 8.50 (VNAR)
VNAR: B1 VNAR with Q88N, Y92I, V93L, V94R
notes: as for B1
B25: Clone 8.63 (VNAR)
VNAR: B1 VNAR with I86Y, A87R, Q88Y, Y92I, V93L, V94R
notes: as for B1
B26: Clone 8.79 (VNAR)
VNAR: B1 VNAR with I86M, A87N, S90D, S91H, Y92F, V93L, V94R
notes: as for B1
B27: Clone 8.55 (VNAR)
VNAR: B1 VNAR with Y92I, V93L, V94F, G95W, N97A
notes: as for B1
B28: Clone 8.77 (VNAR)
VNAR: B1 VNAR with Y92I, V93L, V94R, N97H, Y98L, R99W
notes: as for B1
B29: Clone 8.82 (VNAR)
VNAR: B1 VNAR with Y92I, V93L, V94R, N97V, R99P
notes: as for B1
B30: Clone 8.47 (VNAR)
VNAR: B1 VNAR with I86Q, A87T, Q88T, Y92I, V93L, V94R
notes: as for B1
B31: Clone 8.61 (VNAR)
VNAR: B1 VNAR with Y92I, V93L, V94Q, G95R
notes: as for B1
B32: Clone 8.83 (VNAR)
VNAR: B1 VNAR with Y92I, V93R, V94A
notes: as for B1
B33: Clone 8.65 (VNAR)
VNAR: B1 VNAR with Y92I, V93H, V94D
notes: as for B1
B34: Clone 8.85 (VNAR)
VNAR: B1 VNAR with S90R, S91K, Y92K, V93L, V94R
notes: as for B1
B35: Clone 8.91 (VNAR)
VNAR: B1 VNAR with Y92R, V93K, V94G
notes: as for B1
B36: Clone 8.53 (VNAR)
VNAR: B1 VNAR with Y92I, V93L, V94R, R99A, K100W, H101L
notes: as for B1
B37: Clone 8.86 (VNAR)
VNAR: B1 VNAR with Y92I, V93L, G95N, N97F
notes: as for B1
B38: Clone 8.57 (VNAR)
VNAR: B1 VNAR with S90G, S91N, Y92L, V93L, V94R
notes: as for B1
B39: Clone 8.59 (VNAR)
VNAR: B1 VNAR with Y92H, V93D, V94H
notes: as for B1
B40: Clone 8.51 (VNAR)
VNAR: B1 VNAR with Y92D, V93H, V94P
notes: as for B1
B41: Clone 8.64 (VNAR)
VNAR: B1 VNAR with S90A, S91F, Y92W, V93L, V94R
notes: as for B1
B42: Clone 8.88 (VNAR)
VNAR: B1 VNAR with Y92I, V93L, V94F, N97A
notes: as for B1
B43: Clone 8.90 (VNAR)
VNAR: B1 VNAR with Y92I, V93L, V94R, R99L, K100Y, H101I
notes: as for B1
B44: Clone 8.78 (VNAR)
VNAR: B1 VNAR with Y92V, V94I, R99S
notes: as for B1
B45: Clone 8.56 (VNAR)
VNAR: B1 VNAR with Y92I, V93L, V94R, N97T, Y98F, R99D
notes: as for B1
B46: Clone 8.74 (VNAR)
VNAR: B1 VNAR with Y92L, V93Q, V94D, N97I
notes: as for B1
B47: Clone 8.54 (VNAR)
VNAR: B1 VNAR with Q88S, L89A, S90V, Y92I, V93L, V94R
notes: as for B1

T2 sequence (P02786 89-760 limits assumed): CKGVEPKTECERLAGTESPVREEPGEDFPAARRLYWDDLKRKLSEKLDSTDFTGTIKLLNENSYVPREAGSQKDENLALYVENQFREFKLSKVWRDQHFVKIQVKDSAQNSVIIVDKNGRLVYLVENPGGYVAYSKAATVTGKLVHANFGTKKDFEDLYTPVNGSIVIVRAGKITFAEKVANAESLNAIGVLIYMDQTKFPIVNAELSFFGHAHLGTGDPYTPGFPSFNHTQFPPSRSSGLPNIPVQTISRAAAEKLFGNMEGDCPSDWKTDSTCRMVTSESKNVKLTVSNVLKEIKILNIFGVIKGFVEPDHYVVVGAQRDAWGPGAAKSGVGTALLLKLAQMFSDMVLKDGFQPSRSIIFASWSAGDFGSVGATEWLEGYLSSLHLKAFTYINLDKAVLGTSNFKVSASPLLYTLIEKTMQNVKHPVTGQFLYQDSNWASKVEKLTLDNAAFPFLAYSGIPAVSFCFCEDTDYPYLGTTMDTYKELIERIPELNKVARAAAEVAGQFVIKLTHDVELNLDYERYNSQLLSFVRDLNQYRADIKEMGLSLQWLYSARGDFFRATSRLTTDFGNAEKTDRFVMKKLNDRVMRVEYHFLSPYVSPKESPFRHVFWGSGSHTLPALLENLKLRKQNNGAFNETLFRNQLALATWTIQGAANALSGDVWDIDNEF
T1 sequence (Q62351 89-763 limits assumed): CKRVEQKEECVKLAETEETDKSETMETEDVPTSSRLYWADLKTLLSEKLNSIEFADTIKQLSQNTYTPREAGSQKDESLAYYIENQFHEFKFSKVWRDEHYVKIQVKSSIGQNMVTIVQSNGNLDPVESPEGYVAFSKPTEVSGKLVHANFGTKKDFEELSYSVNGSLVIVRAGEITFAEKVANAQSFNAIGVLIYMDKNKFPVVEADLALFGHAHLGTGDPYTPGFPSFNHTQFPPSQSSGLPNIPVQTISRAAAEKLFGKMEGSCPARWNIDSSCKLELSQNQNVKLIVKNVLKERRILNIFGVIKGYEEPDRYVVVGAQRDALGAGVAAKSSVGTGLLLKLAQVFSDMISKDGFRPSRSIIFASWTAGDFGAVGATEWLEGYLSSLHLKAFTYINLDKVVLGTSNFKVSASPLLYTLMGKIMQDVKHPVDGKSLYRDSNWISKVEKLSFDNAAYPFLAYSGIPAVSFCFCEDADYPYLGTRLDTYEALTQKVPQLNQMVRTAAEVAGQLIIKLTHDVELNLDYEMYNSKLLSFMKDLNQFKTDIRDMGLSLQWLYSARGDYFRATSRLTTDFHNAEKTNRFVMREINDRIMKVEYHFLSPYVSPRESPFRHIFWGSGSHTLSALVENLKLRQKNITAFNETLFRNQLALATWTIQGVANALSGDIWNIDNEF

The first assay has as its target T1, recombinant mouse TfR-1 (mouse, UniProt Q62351 89-763).
T1 construct: Recombinant protein coated at 1 ug/ml in the phage ELISA; also called mTfR1; mouse transferrin receptor-1
The assay is described as follows: phage ELISA.
For B1, the A450 stood at 0.067 A450.
On the same count and under the same terms, to B2 belongs 0.057 A450; to B3, 0.055 A450; to B4, 0.061 A450.
Still for that read-out and setting: under B5 stands 0.062 A450; under B6, 0.063 A450; under B7, 0.061 A450.
Same read-out and setting: under B8 stands 0.062 A450.
For the molecule B9, the A450 turned out to be 0.061 A450.
Take B10: the A450 was 0.062 A450.
On the same count and under the same terms, to B11 belongs 0.059 A450; to B12, 0.06 A450.
As for B13, the A450 was found to be 0.059 A450.
Take B14: the A450 turned out to be 0.063 A450.
The same measure, in the same setting: to B15 belongs 0.057 A450; to B16, 0.066 A450.
Turning to B17, the A450 came to 0.059 A450.
With B18, the A450 was determined as 0.063 A450.
On the same count and under the same terms, to B19 belongs 0.065 A450; to B20, 0.055 A450; to B21, 0.057 A450.
As to B22, the A450 came out at 0.065 A450.
Take B23: the A450 amounted to 0.055 A450.
Same read-out and setting: under B24 stands 0.065 A450; under B25, 0.063 A450; under B26, 0.058 A450.
The same measure, in the same setting: under B27 stands 0.064 A450; under B28, 0.058 A450.
The same measure, in the same setting: under B29 stands 0.057 A450.
In the case of B30, the A450 stood at 0.067 A450.
On the same count and under the same terms, to B31 belongs 0.063 A450; to B32, 0.057 A450; to B33, 0.062 A450.
Same read-out and setting: to B34 belongs 0.056 A450; to B35, 0.055 A450.
On the same count and under the same terms, under B36 stands 0.065 A450.
As to B37, the A450 was 0.056 A450.
Same read-out and setting: under B38 stands 0.063 A450; under B39, 0.063 A450; under B40, 0.065 A450.
Regarding B41, the A450 worked out at 0.062 A450.
On to B42, for which the A450 is 0.055 A450.
For B43, the A450 came out at 0.055 A450.
Still for that read-out and setting: under B44 stands 0.058 A450; under B45, 0.064 A450.
Same read-out and setting: under B46 stands 0.059 A450; under B47, 0.065 A450.

A further assay has as its target T2, recombinant human TfR-1 (human, UniProt P02786 89-760).
T2 construct: Recombinant protein coated at 1 ug/ml in the phage ELISA; also called hTfR1; human transferrin receptor-1
As to the kind of experiment: phage ELISA.
Consider B1, for which the A450 was 0.056 A450.
Still for that read-out and setting: under B2 stands 0.059 A450.
As to B3, the A450 was found to be 0.07 A450.
On the same count and under the same terms, to B4 belongs 0.052 A450; to B5, 0.051 A450; to B6, 0.059 A450.
The same measure, in the same setting: to B7 belongs 0.073 A450; to B8, 0.052 A450; to B9, 0.065 A450.
Same read-out and setting: to B10 belongs 0.056 A450.
For B11, the A450 is 0.049 A450.
With B12, the A450 came to 0.063 A450.
Still for that read-out and setting: under B13 stands 0.051 A450; under B14, 0.073 A450.
Regarding B15, the A450 is 0.065 A450.
On the same count and under the same terms, to B16 belongs 0.082 A450.
As to B17, the A450 amounted to 0.05 A450.
For B18, the A450 was 0.056 A450.
On the same count and under the same terms, under B19 stands 0.06 A450.
On the same count and under the same terms, under B20 stands 0.048 A450; under B21, 0.058 A450.
With B22, the A450 was 0.049 A450.
The same measure, in the same setting: under B23 stands 0.051 A450; under B24, 0.057 A450.
In the case of B25, the A450 is 0.071 A450.
On the same count and under the same terms, under B26 stands 0.061 A450.
In the case of B27, the A450 is 0.055 A450.
For B28, the A450 worked out at 0.055 A450.
Turning to B29, the A450 came out at 0.048 A450.
Same read-out and setting: to B30 belongs 0.072 A450; to B31, 0.067 A450.
For B32, the A450 turned out to be 0.046 A450.
Consider B33, for which the A450 worked out at 0.081 A450.
For B34, the A450 was found to be 0.059 A450.
For the molecule B35, the A450 worked out at 0.071 A450.
The same measure, in the same setting: to B36 belongs 0.051 A450; to B37, 0.053 A450.
With B38, the A450 turned out to be 0.083 A450.
Take B39: the A450 was determined as 0.073 A450.
Still for that read-out and setting: under B40 stands 0.058 A450; under B41, 0.083 A450; under B42, 0.05 A450.
Same read-out and setting: to B43 belongs 0.054 A450; to B44, 0.049 A450; to B45, 0.051 A450.
Same read-out and setting: under B46 stands 0.061 A450.
On to B47, for which the A450 was found to be 0.072 A450.
